Data reported in patent US9504759B2, “Surface modified proteinaceous spherical particles and uses thereof” (BAR-ILAN UNIVERSITY, priority 2011, dated 2016).
Square brackets hold non-standard residues; d marks the D form. Ends that are not written are not given here. Peptide text beside a SMILES is read from it. Nle = CCCC[C@H](N)C(=O)O

What was measured:
Aβ40 [1] = biological target: T1, Aβ40 (Homo sapiens, UniProt P05067); format: biochemical; details: for effect on rate (kinetics) of Aβ aggregation: ThT assay monitored for three days of incubation; for effect on Aβ aggregation (ThT fluorescence): molar ratio of Aβ to peptide or peptide equivalent 1:2, 1:4, 1:6.5, SMOP BSA:KLVFF 1:500, three days, FIG. 2A
T1 construct: incubating fresh monomerized (non-aggregated) solutions of Aβ40
Description: In addition, an indirect assay (ThT [Thioflavin T] assay) was performed as follows. […] The fluorescence is measured and correlated to presence of amyloid plaque formations. Agents which bind and inhibit amyloid plaque formation decrease fluorescence of ThT. The inhibitory activity of KLVFF (SEQ ID NO 1)-modified SMOPs on Aβ40 aggregation was determined in black 96-well flat-bottom plates by incubating fresh monomerized (non-aggregated) solutions of Aβ40 (33 micromolar (μM), 15 μl)with different preparations of the SMOPs (25 μl, Table 1) in PBS. PBS was added to reach a volume of 50 μl, giving a final concentration of 10 μM for Aβ40. […] The plates were sealed with aluminum foil and incubated while shaking at 750 rpm at 37° C. for 72 hours to induce aggregation. Following the incubation, a solution of ThT (24 μM, 150 μl) in glycine buffer (50 millimolar (mM), pH 8.5) was added to each well and the fluorescence of amyloid-bound ThT was immediately measured using a plate reader (Infinite M200, Tecan, Switzerland) at excitation and emission wavelengths of 430 and 492 nm, respectively. The ThT solution was freshly prepared by diluting a ThT stock solution (1 mM, in water) with glycine buffer (50 mM, pH 8.5). Experiments were performed in quadruplicate.
To evaluate the inhibitory effect of KLVFF (SEQ ID NO 1)-modified SMOPs on Aβ aggregation and kinetics, soluble Aβ40 (0.5 nanomol, nmol) was incubated in the absence and presence of different preparations of the SMOPs. Amyloid plaque formation was then monitored by a ThT assay for three days of incubation.

PC12 cells = assay: Reduction of Aβ-induced toxicity in PC12 cells (MTT assay); format: cell-based, rat; details: for effect on toxicity of aggregated Aβ in PC12 cells (cell viability, MTT): agent:Aβ40 4:1 (2 nmol : 0.5 nmol), aged 48 hours, cells 24 hours, FIG. 2B
Description: Prior to the addition of the SMOPs or soluble peptides to the cells, the extent of Aβ40 aggregation in each sample was determined by ThT assay as described above. On the day of the experiment, the medium was replaced with fresh medium (50 μl) and the aged samples (50 μ) were then diluted by a factor of two in the medium. Control wells received PBS (50 μl) only. Cells were incubated for an additional 24 hours and cell viability was then determined by the MTT assay as described above. Each experiment was performed in quadruplicate and repeated three times.

FITC-Aβ40 = biological target: T2, FITC-Aβ40 (Homo sapiens, UniProt P05067); assay: Direct in vitro binding assay with FITC-Aβ40 (fluorescent microscopy, FACS); details: soluble FITC-Aβ40 in PBS at 37° C., after extensive washing; fluorescent microscopy and FACS
T2 construct: incubated with soluble FITC-Aβ40
Description: Binding of KLVFF (SEQ ID NO 1)-modified SMOP to Aβ was assessed using a fluorescent modified Aβ known as FITC-Aβ40 (fluorescein isothiocyanate) in a direct in vitro assay. In order to confirm that the conjugated KLVFF (SEQ ID NO 1) fragments on SMOPs preserved their recognition capability to bind full length Aβ following the sonochemical process and SMOP generation, KLVFF (SEQ ID NO 1)-modified SMOPs were incubated with soluble FITC-Aβ40 (25 μ, 0.5 nanomolar, nM) in PBS at 37° C. for different periods under constant agitation (750 revolutions per minute (rpm)). At each time point, samples were diluted with cold PBS and the microspheres were washed twice with cold PBS. Ten thousand particles were then analyzed immediately by FACS.
As controls, proteinaceous SMOP without surface modification (prepared as in example 1A, without the addition of a KLVFF (SEQ ID NO 1) peptide) (naked BSA spheres) were prepared. FVKLF-modified SMOP was also prepared as a control, as in Example 1C.

Aβ40 [2] = biological target: T1, Aβ40; assay: TEM analysis of samples taken from the ThT assay; format: biochemical; details: 72 hour incubation
[3] = Administration of SMOP to rats to demonstrate safety; format: in vivo; details: intravenously via tail vein, from 100 μl to highest amount 200 µL, observed 2 weeks; BSA:KLVFF 1:500
Description: SMOPs modified with KLVFF (SEQ ID NO 1) (ratio of BSA:KLVFF (SEQ ID NO 1) of 1:500) were used in vivo for toxicological studies. Rats weighing about 250 g each were injected intravenously, via their tail vein, with increasing amounts of the SMOP starting from 100 μl and following an up-down protocol based on the outcome of the initial dose.

[4] = system: murine microglia (BV-2) cells; assay: Phagocytosis by murine microglia (BV-2) cells (confocal microscopy, SEM, FACS); format: cell-based; details: LPS-treated cells, 30 minutes exposure

T1 sequence (P05067 672-711 limits assumed): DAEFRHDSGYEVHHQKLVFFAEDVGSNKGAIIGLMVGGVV
T2 sequence (P05067 672-711 limits assumed): as above

| Molecule | FITC-Aβ40 accumulated on the surface of the particles (fluorescent signal) (FITC-Aβ40) | formation of Aβ40 fibrils (TEM) (Aβ40 [2]) | effect on rate (kinetics) of Aβ aggregation (Aβ40 [1]) | effect on Aβ aggregation (ThT fluorescence) (Aβ40 [1]) | effect on toxicity of aggregated Aβ in PC12 cells (cell viability, MTT) (PC12 cells) | effect on uptake of aggregated FITC-Aβ by BV-2 cells [4] | also measured |
| --- | --- | --- | --- | --- | --- | --- | --- |
| CCCC[C@@H]1NC(=O)[C@@H](CC(C)C)NC(=O)[C@H](CCCCN)NC(=O)[C@@H](CO)NC(=O)[C@H](Cc2c[nH]cn2)NC(=O)[C@@H](Cc2c[nH]c3ccccc23)NC1=O [[lJwHsK], Cyclo-D-leucine-L-noreucine-D-tryptophan-L-histidine-D-serine-L-lysine] (cyclo(K[dL][Nle][dW]H[dS])) |  |  |  |  |  |  | effect on amyloid aggregation / formation (in words) (Aβ40 [1]): drastic effect on amyloid aggregation; reduction of Aβ-induced toxicity in PC12 cells (cyclic peptide) (PC12 cells): effective in reducing Aβ-induced toxicity |
| FVKLF-modified SMOPs: SMOPs formed with scrambled peptide FVKLFC-NH2 (SEQ ID NO 4); comparator in in vitro studies | significantly lower amount of FITC-Aβ40 was accumulated | no inhibitory effect | no or little effect | no or little effect |  |  |  |
| KLVFF-NH2 |  |  |  |  | little or no effect on toxicity |  |  |
| KLVFF-modified SMOP: oil-filled spherical BSA particles with KLVFFC-NH2 (SEQ ID NO 3) attached via disulfide bonds, prepared by sonication | intense fluorescent signals | completely arrests the formation of fibrils | dramatically slowed the rate of Aβ aggregation | significantly decreased the aggregation of Aβ in a dose-dependent manner | significantly reduced |  | immediate toxicity in rats [3]: did not cause immediate toxicity |
| fucoidan |  |  |  |  |  | reduced the uptake of the aggregated Aβ |  |
| pertussis toxin [PTX] |  |  |  |  |  | reduced the uptake of the aggregated Aβ |  |
